Paper PMC6465933, “Direct Binding of the Flexible C-Terminal Segment of Periaxin to β4 Integrin Suggests a Molecular Basis for CMT4F” (Frontiers in Molecular Neuroscience, 2019)

T1: β4 integrin FNIII-3 (Homo sapiens, UniProt P16144)
T1 chain: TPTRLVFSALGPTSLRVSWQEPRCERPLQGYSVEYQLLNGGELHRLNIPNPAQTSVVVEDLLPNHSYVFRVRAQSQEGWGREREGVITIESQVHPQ

B1: His-tagged rat β4-FNIII-3 (β4 integrin amino acids 1512–1602) (domain or fragment, UniProt Q64632 1512-1602, looked up)
chain: PDTPTRLVFSALGPTSLKVSWQEPQCDRALLGYSVEYQLLNGGEMHRLNIPNPGQTSVVVEDLLPNHSYVFRVRAQSQEGWGREREGVITI
notes: β4 integrin, third cytoplasmic fibronectin type III domain, rat, amino acids 1512-1602, synthetic gene in pJ401; No tag cleavage is described for this protein; the His tag is partly seen in the crystal structure; also called His-β4-FNIII-3; rFNIII-3; source: E. coli BL21(DE3), purified (Ni-NTA, SEC)
B2: periaxin C-terminal segment (protein)
chain: SGRRGRVRVRLPRVGLAAPSKASRGQEGDAAPKSPVREKSPKFRFPRVSLSPKARSGSGDQEEGGLRVRLPSVGFSETGAPGPARMEGAQAAAV
B3: rat L-PRX C-terminal region (amino acids 1036–1383) (domain or fragment, UniProt Q63425 1036-1383, looked up)
chain: EVELVTPGAQETEKVTSGVKPSGLQVSTTRQVVAEGQEGAQRVSSLGISLPQVELASFGEAGPEIAAPSAEGTVGSRIQVPQVMLELPGTQVAGGDLLVGEGIFKMPTVTVPQLELDVGLGHEAQAGETAKSEGGLKLKLPTLGAGGKGEGAEAQSPEAQHTFHISLPDVELTSPVSSHAEYQVVEGDGDGGHKLKVRLPLFGLARAKEGIETGEKVKSPKLRLPRVGFSQSESASGEGSPSPEEEEEGSGEGASGRRGRVRVRLPRVGLASPSKGSKGQEGDAASKSPVGEKSPKFRFPRVSLSPKARSGSKDREEGGFRVRLPSVGFSETAAPGSARIEGTQAAAI
notes: After TEV cleavage an additional N-terminal Ser residue is left; also called rPRX-C; source: E. coli BL21(DE3), purified (Ni-NTA in urea, TEV cleavage, second Ni-NTA, SEC)

Key:
[1] = molecular target: B3; assay: ITC; 680 μM β4-FNIII-3 titrated into 68 μM PRX-C, 25°C, 20 mM HEPES, 150 mM NaCl, pH 7.5; conditions: both partners purified
β4 integrin FNIII-3 = molecular target: T1, β4 integrin FNIII-3; assay: ITC
[2] = molecular target: B1; assay: SEC-MALS; with QELS; equimolar complex (145 μM each), Superdex 200 increase 3.2/300GL, 20 mM Tris, 150 mM NaCl, pH 7.4, ambient temperature; conditions: both partners purified

Binder: B1
Kd [1]: 1700 ± 100 nM | dH [1]: 6.2 ± 0.06 kcal/mol | stoichiometry N [1]: ~1

Binder: B2
Kd (β4 integrin FNIII-3): 1700 nM

Binder: B3
stoichiometry N [2]: 1
